In experiment [1] the target is T1, human CD36 (Sino Biological) (human, UniProt P16671 30-439).
T1 construct: Bought protein coated on ELISA plates
The experiment is described as follows: ELISA, plates coated with human CD36 (Sino Biological), antibody titrated, OD630nm.
Text: Binding was first tested using an ELISA assay in which 96-well ELISA plates were coated with human CD36 (Sino Biological) or mouse CD36 protein.

The target of experiment [2] is T2, human CD36 (on HEK 293 or SCC25 cells) (human, UniProt P16671 2-472).
T2 construct: Overexpressed transiently or stably on HEK 293 cells, or stably on SCC25 cells; also called huCD36
The experiment in a line: FACS, SCC25 cells stably expressing human CD36. On the technique in general: Flow cytometry measures light scatter and fluorescence of single cells or particles in a stream.
Experimental: SCC25 cells were treated with 10-fold serial dilution of each antibody (5 dilutions starting at 100 nM). After incubation with the cells, an anti-human fluorescently labelled antibody was added to the cell media, allowed to incubate further, and the unbound antibody was washed off of the cells. Subsequently, the cells were subjected to FACS analysis to determine antibody binding to the cells. The results were fitted to a sigmoidal titration curve. Using a nonlinear regression model, the EC₅₀ values for each antibody were calculated from the GeoMFI and MFI values using the log(agonist) versus response (four parameters) fitting on the data transformed according to X=Log[X] in GraphPad PRISM.

The target in experiment [3] is T2, human CD36 (on HEK 293 or SCC25 cells). The experiment in a line: cell-based or functional assay.
For another experiment, the target named is T3, Human FcγRIIIb (human, UniProt O75015).
T3 construct: soluble receptor protein; bar 3 of each group
The experiment is described as follows: SPR, antibody immobilized through its light chains, soluble receptor injected; Mean Relative Response (RU). (In general: In SPR one partner is held on a chip, and binding of the other changes the refractive index at the surface.)

The target of the next experiment is T4, Human FcγRIIIa (158F) (human, UniProt P08637).
T4 construct: soluble receptor protein; bar 1 of each group
The experiment is described as above.

For the next experiment, the target named is T5, Human FcγRIIa (131R) (human, UniProt P12318).
T5 construct: soluble receptor protein; bar 6 of each group
T5 sequence (receptor, looked up): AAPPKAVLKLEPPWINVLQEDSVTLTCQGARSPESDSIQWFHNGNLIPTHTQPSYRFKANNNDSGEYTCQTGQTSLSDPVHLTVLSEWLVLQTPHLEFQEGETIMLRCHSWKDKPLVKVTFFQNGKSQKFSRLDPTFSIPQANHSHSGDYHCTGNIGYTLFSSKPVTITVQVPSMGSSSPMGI
The experiment is described as above.

Another experiment addresses T6, Human FcγRIIa (131H) (human, UniProt P12318).
T6 construct: soluble receptor protein; bar 5 of each group
T6 sequence (receptor, looked up): T5 sequence (receptor, looked up) with R132H
Described as above.

The next experiment addresses T7, Cyno FcγRIII (cynomolgus monkey, UniProt Q8SPW2).
T7 construct: soluble receptor protein; bar 4 of each group
Described as above.

For a further experiment, the target named is T8, Human FcγRIIb (human, UniProt P31994).
T8 construct: soluble receptor protein; bar 7 of each group
T8 sequence (receptor, looked up): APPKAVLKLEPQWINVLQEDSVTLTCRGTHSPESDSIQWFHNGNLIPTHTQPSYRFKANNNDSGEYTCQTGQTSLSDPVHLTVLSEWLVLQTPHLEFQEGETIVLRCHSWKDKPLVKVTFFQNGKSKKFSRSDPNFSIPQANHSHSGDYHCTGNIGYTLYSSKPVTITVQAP
The description is as above.

A further experiment addresses T9, Human FcγRI (human, UniProt P12314).
T9 construct: soluble receptor protein; bar 10 of each group
The experiment is described as above.

For the next experiment, the target named is T10, Cyno FcγRIIa (Macaca fascicularis, UniProt A0A140HDN0).
T10 construct: soluble receptor protein; bar 8 of each group
T10 sequence (receptor): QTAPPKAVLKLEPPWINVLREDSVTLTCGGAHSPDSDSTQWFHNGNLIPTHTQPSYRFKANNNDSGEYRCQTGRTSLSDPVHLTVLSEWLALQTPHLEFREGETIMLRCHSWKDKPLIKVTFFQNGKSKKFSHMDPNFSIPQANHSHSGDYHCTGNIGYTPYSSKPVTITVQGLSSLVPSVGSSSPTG
Described as above.

The target in a further experiment is T11, Human FcγRIIIa (158V) (human, UniProt P08637).
T11 construct: soluble receptor protein; bar 2 of each group
Described as above.

Experiment [4] addresses T2, human CD36 (on HEK 293 or SCC25 cells). The experiment is described as follows: FACS, SCC25 cells stably overexpressing human CD36.
Experimental: (§1) After transiently transfecting the HEK 293 cells with a CD36 expression construct, cells were treated with three-fold serial dilution of each candidate antibody (10 dilutions starting at 500 nM). […] After incubation with the cells, an anti-human fluorescently labelled antibody was added to the cell media, allowed to incubate further, and the unbound antibody was washed off of the cells. Subsequently, the cells were subjected to FACS analysis to determine antibody binding to the cells. The results were fitted to a sigmoidal titration curve. Using a nonlinear regression model, the EC₅₀ values for each antibody were calculated from the GeoMFI and MFI values using the log(agonist) versus response (four parameters) fitting on the data transformed according to X=Log[X] in GraphPad PRISM.
For a further experiment, the target named is T12, C1q human protein (human, UniProt P02745 23-245; P02746 28-253; P02747 29-245).
T12 construct: also called complement C1q protein
The experiment in a line: ELISA, plates coated with the antibody, C1q human protein titrated, Mean Absorbance (OD Units).

A further experiment deals with human FcRn (human, UniProt P55899 24-297; P61769 21-119). The experiment is described as follows: SPR at pH 5.8, antibody immobilized through its light chains, soluble human FcRn.
The next experiment concerns the target T13, human CD36 (His-tagged) (human, UniProt P16671 30-439).
T13 construct: not shown: His tag
The experiment in a line: SPR (Biacore T200), His-captured CD36, bivalent analyte model.

Experiment [5] has as its target T2, human CD36 (on HEK 293 or SCC25 cells). The experiment is described as follows: cell-based or functional assay. The source holds these as a separate data set.
Experiment [6] shares this target. The experiment in a line: cell-based or functional assay. The source holds these as a separate data set.
Experiment [7] has as its target T14, nonhuman primate CD36 (on HEK 293 cells) (cynomolgus monkey / rhesus macaque, UniProt P16671 2-472 (human entry)).
T14 construct: also called non-human primate CD36 (cynomolgus)
The experiment in a line: FACS, HEK 293 cells transiently overexpressing CD36.

In experiment [8] the target is T2, human CD36 (on HEK 293 or SCC25 cells). The description is as above.
Experiment [9] has as its target T15, mouse CD36 (on HEK 293 cells) (mouse, UniProt Q08857 1-472).
T15 construct: also called Murine CD36
Described as above.

Experiment [10] has as its target T14, nonhuman primate CD36 (on HEK 293 cells). The experiment is described as above. The source holds these as a separate data set.
Experimental: as §1
The target of experiment [11] is T16, purified biotin-tagged human CD36 (human, UniProt P16671 30-439, limits assumed, biotin tag, site not stated). The experiment is described as follows: AlphaScreen competition; competitor 1G04 on acceptor beads.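 Note: streptavidin donor beads excited at 680 nm release singlet oxygen, and the light signal needs a nearby acceptor bead, with 30 min donor-bead incubation at 25 °C in the dark.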
In experiment [12] the target is T16, purified biotin-tagged human CD36. The experiment in a line: AlphaScreen competition; competitor FA6-152 on acceptor beads. Background: In Alpha technology, singlet oxygen from a donor bead excites a nearby acceptor bead.
Experimental: This was done using the AlphaScreen® bead-based microplate assay. […] AlphaLISA® Streptavidin Donor Beads were then added and the mix incubated for 30 min at 25° C. in the dark. The donor bead contains a photosensitizer, which upon excitation by light at 680 nm, converts oxygen (O₂) into an excited form, singlet oxygen. Singlet oxygen molecules have a reduced lifetime (4 microseconds half-life) and can diffuse approximately 200 nm in solution before falling back to ground state. In the absence of acceptor beads, the singlet oxygen molecules fall back to ground state without producing any light signal.

Changes are numbered by the printed parent chain. In names and notes the source's numbering stands.

T14 sequence (P16671 other isoform, or with tags, fused parts or gaps limits assumed): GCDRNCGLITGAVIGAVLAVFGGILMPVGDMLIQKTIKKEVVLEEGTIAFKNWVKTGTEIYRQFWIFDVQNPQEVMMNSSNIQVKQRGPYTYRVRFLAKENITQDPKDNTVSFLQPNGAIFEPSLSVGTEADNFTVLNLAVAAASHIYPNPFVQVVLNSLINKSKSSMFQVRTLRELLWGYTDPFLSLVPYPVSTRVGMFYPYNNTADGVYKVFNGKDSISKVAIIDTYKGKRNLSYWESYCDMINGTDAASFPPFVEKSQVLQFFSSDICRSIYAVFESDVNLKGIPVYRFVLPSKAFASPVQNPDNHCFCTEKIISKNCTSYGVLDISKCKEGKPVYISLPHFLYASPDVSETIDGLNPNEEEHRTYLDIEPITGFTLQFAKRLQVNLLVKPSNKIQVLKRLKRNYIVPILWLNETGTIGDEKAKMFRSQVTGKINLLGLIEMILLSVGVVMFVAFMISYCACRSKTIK
T2 sequence (P16671 2-472 limits assumed): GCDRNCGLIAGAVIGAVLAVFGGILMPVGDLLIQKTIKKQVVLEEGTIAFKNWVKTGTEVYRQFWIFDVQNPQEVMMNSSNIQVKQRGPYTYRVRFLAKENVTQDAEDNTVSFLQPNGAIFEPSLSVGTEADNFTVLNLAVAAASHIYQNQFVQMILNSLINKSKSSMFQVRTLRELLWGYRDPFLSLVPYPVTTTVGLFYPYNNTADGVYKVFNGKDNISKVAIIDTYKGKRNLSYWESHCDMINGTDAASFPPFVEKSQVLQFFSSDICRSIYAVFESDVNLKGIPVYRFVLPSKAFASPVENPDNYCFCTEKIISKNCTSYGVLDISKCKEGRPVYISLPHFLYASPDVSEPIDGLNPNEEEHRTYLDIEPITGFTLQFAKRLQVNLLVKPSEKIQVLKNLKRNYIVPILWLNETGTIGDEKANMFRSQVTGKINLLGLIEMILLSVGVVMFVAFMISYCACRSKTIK
T1 sequence (P16671 30-439 limits assumed): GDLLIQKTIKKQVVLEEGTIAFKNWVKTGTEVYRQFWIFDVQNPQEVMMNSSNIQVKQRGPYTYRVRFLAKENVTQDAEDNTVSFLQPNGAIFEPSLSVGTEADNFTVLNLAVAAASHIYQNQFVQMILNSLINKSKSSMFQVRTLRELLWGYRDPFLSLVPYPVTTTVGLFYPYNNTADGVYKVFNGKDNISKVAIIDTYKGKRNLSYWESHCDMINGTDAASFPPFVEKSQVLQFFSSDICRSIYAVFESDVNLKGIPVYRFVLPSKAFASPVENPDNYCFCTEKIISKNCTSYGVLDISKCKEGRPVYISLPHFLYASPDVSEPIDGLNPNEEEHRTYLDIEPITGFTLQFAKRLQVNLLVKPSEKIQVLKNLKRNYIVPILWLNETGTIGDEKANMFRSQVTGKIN
T13 sequence (P16671 30-439 limits assumed): as above
T16 sequence (P16671 30-439 limits assumed): as above
T15 sequence (Q08857 whole entry): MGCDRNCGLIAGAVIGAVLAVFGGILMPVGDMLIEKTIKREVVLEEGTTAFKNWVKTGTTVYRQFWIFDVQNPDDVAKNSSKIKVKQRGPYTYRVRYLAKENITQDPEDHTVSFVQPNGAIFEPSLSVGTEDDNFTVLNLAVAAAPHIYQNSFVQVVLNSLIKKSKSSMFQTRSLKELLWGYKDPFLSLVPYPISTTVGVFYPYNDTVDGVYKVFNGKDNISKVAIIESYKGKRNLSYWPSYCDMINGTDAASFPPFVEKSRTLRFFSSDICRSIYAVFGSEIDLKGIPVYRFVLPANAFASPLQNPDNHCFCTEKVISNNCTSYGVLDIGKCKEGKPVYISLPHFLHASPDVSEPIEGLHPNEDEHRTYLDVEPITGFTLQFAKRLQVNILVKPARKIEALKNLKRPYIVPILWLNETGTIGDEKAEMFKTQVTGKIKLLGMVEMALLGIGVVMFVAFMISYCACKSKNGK
T11 sequence (P08637 17-208 F176V limits assumed): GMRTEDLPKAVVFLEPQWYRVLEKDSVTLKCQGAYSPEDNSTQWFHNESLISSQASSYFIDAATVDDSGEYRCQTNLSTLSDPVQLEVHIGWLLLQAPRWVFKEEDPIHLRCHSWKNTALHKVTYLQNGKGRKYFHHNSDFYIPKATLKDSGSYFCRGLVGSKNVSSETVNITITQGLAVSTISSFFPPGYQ
human FcRn, sequence (P55899 24-297 limits assumed, chain 1 of 2): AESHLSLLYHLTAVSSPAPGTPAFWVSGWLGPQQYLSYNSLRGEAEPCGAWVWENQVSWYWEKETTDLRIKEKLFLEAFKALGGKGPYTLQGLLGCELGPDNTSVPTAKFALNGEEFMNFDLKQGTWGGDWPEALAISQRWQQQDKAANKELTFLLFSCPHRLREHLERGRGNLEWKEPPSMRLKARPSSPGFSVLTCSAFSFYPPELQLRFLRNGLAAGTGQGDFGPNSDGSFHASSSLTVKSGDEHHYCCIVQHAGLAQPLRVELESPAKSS
human FcRn, sequence (P61769 21-119 limits assumed, chain 2 of 2): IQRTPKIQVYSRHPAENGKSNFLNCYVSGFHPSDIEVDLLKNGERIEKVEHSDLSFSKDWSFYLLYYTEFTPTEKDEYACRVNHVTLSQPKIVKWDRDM
T9 sequence (P12314 16-288 limits assumed): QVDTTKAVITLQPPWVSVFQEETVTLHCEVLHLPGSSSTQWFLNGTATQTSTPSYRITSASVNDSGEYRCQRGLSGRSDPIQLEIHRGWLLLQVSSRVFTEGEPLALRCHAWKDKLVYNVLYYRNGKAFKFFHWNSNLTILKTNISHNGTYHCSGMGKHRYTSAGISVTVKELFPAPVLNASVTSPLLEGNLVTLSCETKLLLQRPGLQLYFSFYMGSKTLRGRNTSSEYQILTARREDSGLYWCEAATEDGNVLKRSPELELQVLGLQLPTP
T12 sequence (P02745 23-245 limits assumed, chain 1 of 3): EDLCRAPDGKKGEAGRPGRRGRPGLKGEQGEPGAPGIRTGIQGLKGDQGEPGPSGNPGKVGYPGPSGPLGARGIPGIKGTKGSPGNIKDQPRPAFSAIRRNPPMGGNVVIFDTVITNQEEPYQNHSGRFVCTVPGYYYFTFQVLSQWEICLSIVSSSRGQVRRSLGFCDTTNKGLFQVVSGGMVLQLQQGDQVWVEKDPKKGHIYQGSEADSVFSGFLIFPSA
T12 sequence (P02746 28-253 limits assumed, chain 2 of 3): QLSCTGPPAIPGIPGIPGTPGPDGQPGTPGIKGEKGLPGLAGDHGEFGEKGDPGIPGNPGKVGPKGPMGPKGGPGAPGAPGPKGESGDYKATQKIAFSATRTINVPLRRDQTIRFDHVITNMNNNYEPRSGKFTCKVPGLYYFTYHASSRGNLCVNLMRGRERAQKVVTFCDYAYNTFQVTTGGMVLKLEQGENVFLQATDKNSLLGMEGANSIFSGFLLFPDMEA
T12 sequence (P02747 29-245 limits assumed, chain 3 of 3): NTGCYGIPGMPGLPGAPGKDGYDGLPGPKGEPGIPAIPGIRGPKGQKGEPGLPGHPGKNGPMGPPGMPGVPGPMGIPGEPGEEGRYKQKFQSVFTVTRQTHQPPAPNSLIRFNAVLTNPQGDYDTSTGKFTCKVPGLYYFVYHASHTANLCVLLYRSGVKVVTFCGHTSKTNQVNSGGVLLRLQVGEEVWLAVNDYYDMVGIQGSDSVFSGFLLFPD
T3 sequence (O75015 17-200 limits assumed): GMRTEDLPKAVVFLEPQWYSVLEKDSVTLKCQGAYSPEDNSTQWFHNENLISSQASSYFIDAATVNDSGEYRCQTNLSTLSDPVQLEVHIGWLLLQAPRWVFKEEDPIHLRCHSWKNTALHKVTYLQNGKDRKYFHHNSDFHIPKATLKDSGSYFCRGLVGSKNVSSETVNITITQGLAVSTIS
T7 sequence (Q8SPW2 17-208 limits assumed): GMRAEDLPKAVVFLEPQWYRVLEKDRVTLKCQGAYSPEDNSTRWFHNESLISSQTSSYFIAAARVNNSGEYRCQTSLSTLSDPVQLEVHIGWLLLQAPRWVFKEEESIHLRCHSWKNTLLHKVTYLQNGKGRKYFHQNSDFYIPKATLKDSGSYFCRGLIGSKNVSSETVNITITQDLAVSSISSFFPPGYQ
T4 sequence (P08637 17-208 limits assumed): as the sequence (P08637 17-208 F176V limits assumed) above, with V160F counted along it
Experimental for C1q human protein: Binding to complement C1q protein was also measured, using a standard ELISA assay in which 96-well ELISA plates were coated with the tested antibodies and C1q human protein was added (2.5-fold serial dilution starting at 250 g/mL).
Experimental for Cyno FcγRIII: (§2) The binding of the different Fc-formatted anti-CD36 antibodies to FcγRs and FcRn was measured by SPR by immobilizing the antibodies through their light chains. The setup for these assays orients the antibody such that the Fc domain is solvent-exposed, allowing quantification of the interaction with soluble receptor proteins. Antibodies with well-defined binding properties were included as positive/negative controls in all the assays.
Experimental for Cyno FcγRIIa: as §2
Experimental for Human FcγRIIIa (158F): as §2
Experimental for Human FcγRIIIa (158V): as §2
Experimental for Human FcγRIIIb: as §2
Experimental for Human FcγRIIa (131H): as §2
Experimental for Human FcγRIIa (131R): as §2
Experimental for Human FcγRIIb: as §2
Experimental for human CD36 (His-tagged): The binding affinity of the reported antibodies for human CD36 was also measured by surface plasmon resonance (SPR) using a Biacore T200. […] For each single-cycle experiment, human CD36 (His-tagged) was captured at low density (approximately 40 RU) and a titration of five antibody concentrations (diluted in running buffer) were injected over the captured antigen and then the dissociation of the complex was measured. A double referencing method was employed in which data from the reference surfaces where no antigen was captured (fc 1) were subtracted from the antigen bound capture surface (fc 2). Blank injections of buffer were run for every antibody titration cycle and then subtracted from analyte injection cycles, to correct for small changes in the capture surface density. Surface regeneration between cycles was performed by injecting Glycine pH 1.5 for 60 s. All analysis was performed at 20° C. in HBS-P running buffer (flow 30 μL/min), and the sample rack was kept at 6° C. during experimental runs. Data was fitted to a bivalent analyte model from which the kinetic and thermodynamic binding constants were derived.
Experimental for human FcRn: as §2

B1: 1G05 (antibody, V domains shown)
VH: QVQLKQSGADLVRPGASVKLSCKASGYTFTDYYINWVKQRPGQGLEWIARIYPGSGNTYYNEKFKGKATLTAEKSSSTAYMQLSSLTSEDSAVYFCARGIGGGFGMDYWGQGTSVTVSS
VL: SIVMTQTPKFLLVSAGDRITITCKASQSVSDDVAWYQQKPGQSPKLLIYYASNRYTGVPDRFTGSGYGTDFTFTISTVQAEDLAVYFCQQDYSSPLTFGAGTKLEIK
notes: also called LALAPG
As to B1, in experiment [1], the “EC50 (read off the curve)” value was around 0.1 nM. The same molecule registered an EC50 in [2] of 0.38 nM.

B2: 1G03 (antibody, V domains shown)
VH: B1 VH
VL: B1 VL
As for B2, the half-maximal effective concentration (EC50 (read off the curve)) in experiment [1] is around 0.1 nM. Also, a half-maximal response in experiment [2] (EC50) required 0.38 nM.

B3: 1G04 (antibody, human IgG1, kappa, L234A L235A)
heavy: not shown
light: SIVMTQTPKFLLVSAGDRITITCKASQSVSDDVAWYQQKPGQSPKLLIYYASNRYTGVPDRFTGSGYGTDFTFTISTVQAEDLAVYFCQQDYSSPLTFGAGTKLEIKRTVAAPSVFIFPPSDEQLKSGTASVVCLLNNFYPREAKVQWKVDNALQSGNSQESVTEQDSKDSTYSLSSTLTLSKADYEKHKVYACEVTHQGLSSPVTKSFNRGEC
notes: Chimeric human IgG1 with L234A/L235A (LALA); variable region of ONA-0-v1; also called 01G04; 001G04; copies: 2 + 2
Regarding B3, the “IC50 of oxLDL uptake inhibition (DiI-oxLDL, SCC25 cells)” value in experiment [3] is 0.36 nM. The binding result with Human FcγRIIIb, in the experiment with Human FcγRIIIa (158F), in the experiment with Human FcγRIIa (131R), in the experiment with Human FcγRIIa (131H), with Cyno FcγRIII and with Human FcγRIIb was “binds” each time. Besides, the binding result in the experiment with Human FcγRI is given as “binds”; with Cyno FcγRIIa, “no binding”; with Human FcγRIIIa (158V), “binds”; with C1q human protein, “no binding (tested: 250 µg/mL C1q (highest point))”. Further, the EC50 amounted to 0.34 nM in experiment [4]; 0.42 nM in [2]; 1.23 nM in experiment [7]; 2.07 nM in experiment [8]; 1.99 nM in experiment [9]. For the same molecule, the results for the Kd with human FcRn and with human CD36 (His-tagged) were 676 nM and 3.2 nM, respectively. For the same molecule, the koff in the experiment with human CD36 (His-tagged) amounted to 0.0094 s⁻¹. Also, the kon with human CD36 (His-tagged) is 2.9e+06 M⁻¹ s⁻¹. Besides, the “EC50 (read off the curve)” value in experiment [1] was around 0.1 nM. The “IC50 of fatty acid uptake inhibition (BODIPY FL C16, HEK hCD36 cells)” value in [5] is 1 nM. Besides, the “Percent Fatty Acid Uptake Inhibition” value in experiment [6] was found to be 30.5%.

B4: 31G04 (antibody, human IgG1, V domains shown)
VH: QVQLQQSGSELRSPGSSVKLSCKDFDSEVFPIAYMSWVRQKPGHGFEWIGDILPSIGSTIYGEKFEDKATLDADTVSNTAYLELNSLTSEDSAIYYCARDYYGSSYGYFDVWGAGTTVTVPS
VL: DIVLTQSPASLAVSLGQRATISCRASESVDSYGNSFMHWYQQKPGQPPKLLIYRASNLESGIPARFSGSGSRTDFTLTINPVEADDVATYYCQQSNEDPYTFGGGTKLEIK
notes: Chimeric: mouse variable regions on human IgG1 LALA (L234A/L235A)
As to B4, the binding result in experiment [10] was “no binding (tested: 500 nM top concentration)”. Besides, the EC50 was 0.27 nM in experiment [11] and 2.5 nM in [12].

B5: 26G04 (antibody, human IgG1, V domains shown)
VH: QVQMKESGAELMKPGASVKISCKATGYIFSNYWIEWLKERPGHGLEWIGDFLPGSSSANYNEKFKGKATFTADTSSNTAYMQLSSLTSEDSAVYYCVPFTVEVTDAMDYWGQGTSVTVSS
VL: DIVLTQSHKFMSTSVGDRVSITCKASQDVSTAVAWYQQKPGQSPKLLIYSASYRYTGVPDRFTGSGSGTDFTFTISSVQAEDLAVYYCQQHYSTPRTFGGGTKLEIK
notes: as for B4
Consider B5, for which the binding result in [10] is “no binding (tested: 500 nM top concentration)”. Also, the half-maximal effective concentration (EC50) in [11] was 0.46 nM; in [12], 2.66 nM; in [8], 0.72 nM; in experiment [9] it was 158 nM.

One may read the EC50 (read off the curve) as the concentration giving half of the maximal effect. What is called EC50 is the concentration at which the effect is half-maximal. By koff is commonly meant a measure of how fast the partners let go of each other. A word on the kon: it is the second-order rate constant of association.

The values are drawn from patent US20250206836A1 (ONA THERAPEUTICS S L, published 2025).
